# Numbered stars: 1 amine (or outer) side, 2 acyl side, 3 side chain; on linkers, the order of the positions; unused ones are H or OH. Square brackets hold non-standard residues; d marks the D form. * marks the point of attachment. CH═CH‑CON(CH2Ph)2 = O=C(/C=C/*)N(Cc1ccccc1)Cc1ccccc1; CH═CH‑CON(CH3)CH2CH2Ph = CN(CCc1ccccc1)C(=O)/C=C/*; AAsp = aza-Asp, O=C(N(CC(=O)[*:3])N[*:1])[*:2]; CH═CH‑COOEt = CCOC(=O)/C=C/*; Cbz = O=C(OCc1ccccc1)*
# T1: Caspase-3 (UniProt P42574)
# T1 sequence (looked up): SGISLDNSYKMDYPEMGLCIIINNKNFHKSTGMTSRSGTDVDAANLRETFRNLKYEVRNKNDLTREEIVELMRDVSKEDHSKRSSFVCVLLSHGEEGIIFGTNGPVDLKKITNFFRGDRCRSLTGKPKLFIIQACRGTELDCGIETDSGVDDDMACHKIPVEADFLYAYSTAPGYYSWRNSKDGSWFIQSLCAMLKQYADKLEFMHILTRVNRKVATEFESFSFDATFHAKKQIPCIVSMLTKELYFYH
# T2: Caspase-6 (UniProt P55212)
# T2 sequence (looked up): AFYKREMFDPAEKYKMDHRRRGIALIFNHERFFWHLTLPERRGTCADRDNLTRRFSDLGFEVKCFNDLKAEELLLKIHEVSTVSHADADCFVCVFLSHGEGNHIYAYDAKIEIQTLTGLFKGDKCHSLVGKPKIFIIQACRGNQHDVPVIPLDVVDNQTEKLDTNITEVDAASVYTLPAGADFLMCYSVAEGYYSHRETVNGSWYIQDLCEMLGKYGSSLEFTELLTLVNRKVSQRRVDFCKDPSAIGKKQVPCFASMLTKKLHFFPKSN
# T3: Caspase-7 (UniProt P55210)
# T3 sequence (looked up): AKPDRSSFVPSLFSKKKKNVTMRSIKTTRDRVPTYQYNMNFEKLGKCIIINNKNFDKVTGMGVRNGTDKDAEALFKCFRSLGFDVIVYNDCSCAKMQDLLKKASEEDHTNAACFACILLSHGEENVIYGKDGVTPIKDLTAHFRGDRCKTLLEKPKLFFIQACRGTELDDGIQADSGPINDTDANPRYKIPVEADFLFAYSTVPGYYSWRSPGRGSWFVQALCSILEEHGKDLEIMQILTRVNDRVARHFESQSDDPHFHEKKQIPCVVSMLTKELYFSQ
# T4: Caspase-10 (UniProt Q92851)
# T4 sequence (looked up): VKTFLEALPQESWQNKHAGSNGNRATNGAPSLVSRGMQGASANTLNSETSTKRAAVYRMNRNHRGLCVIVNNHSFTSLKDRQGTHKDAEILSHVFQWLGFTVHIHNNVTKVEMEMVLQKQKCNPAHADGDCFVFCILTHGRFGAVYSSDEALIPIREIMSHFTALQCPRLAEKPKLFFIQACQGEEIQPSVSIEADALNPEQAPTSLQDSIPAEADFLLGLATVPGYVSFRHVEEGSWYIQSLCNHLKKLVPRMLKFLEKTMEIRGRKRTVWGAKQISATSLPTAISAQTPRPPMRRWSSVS
# T5: Caspase-2 (UniProt P42575)
# T5 sequence (looked up): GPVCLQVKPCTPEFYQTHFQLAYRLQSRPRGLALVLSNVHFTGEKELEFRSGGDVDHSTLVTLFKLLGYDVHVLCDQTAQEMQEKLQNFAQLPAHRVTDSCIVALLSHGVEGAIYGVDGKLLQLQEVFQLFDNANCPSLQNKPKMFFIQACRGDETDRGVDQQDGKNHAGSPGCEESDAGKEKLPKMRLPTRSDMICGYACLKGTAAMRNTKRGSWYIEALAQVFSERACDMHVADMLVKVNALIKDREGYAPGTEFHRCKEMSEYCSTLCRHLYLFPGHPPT
# B1: Cbz-Ile-Glu-Thr-AAsp-CH═CH-CON(CH3)CH2CH2Ph (peptide)
# peptide: Cbz-IET[AAsp]-{CH═CH‑CON(CH3)CH2CH2Ph}
# SMILES: CC[C@H](C)[C@H](NC(=O)OCc1ccccc1)C(=O)N[C@@H](CCC(=O)O)C(=O)N[C@H](C(=O)NN(CC(=O)O)C(=O)/C=C/C(=O)N(C)CCc1ccccc1)[C@@H](C)O
# B2: Cbz-Ile-Glu-Thr-AAsp-CH═CH-CON(CH2Ph)2 (peptide)
# peptide: Cbz-IET[AAsp]-{CH═CH‑CON(CH2Ph)2}
# SMILES: CC[C@H](C)[C@H](NC(=O)OCc1ccccc1)C(=O)N[C@@H](CCC(=O)O)C(=O)N[C@H](C(=O)NN(CC(=O)O)C(=O)/C=C/C(=O)N(Cc1ccccc1)Cc1ccccc1)[C@@H](C)O
# B3: Cbz-Ile-Glu-Thr-AAsp-CH═CH-COOEt (peptide)
# peptide: Cbz-IET[AAsp]-{CH═CH‑COOEt}
# SMILES: CCOC(=O)/C=C/C(=O)N(CC(=O)O)NC(=O)[C@@H](NC(=O)[C@H](CCC(=O)O)NC(=O)[C@@H](NC(=O)OCc1ccccc1)[C@@H](C)CC)[C@@H](C)O
# Target: T1, Caspase-3
# Assay: cell-based or functional assay
row,k2,Binder
1,5480 M⁻¹ s⁻¹,B1
2,9570 M⁻¹ s⁻¹,B2
3,4750 M⁻¹ s⁻¹,Cbz-IET[AAsp]-{CH═CH‑CONHCH2CH2Ph} [Cbz-Ile-Glu-Thr-AAsp-CH═CH-CONHCH2CH2Ph]
4,7030 M⁻¹ s⁻¹,Cbz-IET[AAsp]-{CH═CH‑CONHPh} [Cbz-Ile-Glu-Thr-AAsp-CH═CH-CONHPh]
5,2250 M⁻¹ s⁻¹,Cbz-IET[AAsp]-{CH═CH‑CONHCH2Ph} [Cbz-Ile-Glu-Thr-AAsp-CH═CH-CONHCH2Ph]
6,6740 M⁻¹ s⁻¹,B3

# Target: T2, Caspase-6
# Assay: cell-based or functional assay
row,k2,Binder
1,83900 M⁻¹ s⁻¹,B2
2,18700 M⁻¹ s⁻¹,Cbz-IET[AAsp]-{CH═CH‑CONHCH2CH2Ph} [Cbz-Ile-Glu-Thr-AAsp-CH═CH-CONHCH2CH2Ph]
3,99200 M⁻¹ s⁻¹,Cbz-IET[AAsp]-{CH═CH‑CONHPh} [Cbz-Ile-Glu-Thr-AAsp-CH═CH-CONHPh]
4,16800 M⁻¹ s⁻¹,Cbz-IET[AAsp]-{CH═CH‑CONHCH2Ph} [Cbz-Ile-Glu-Thr-AAsp-CH═CH-CONHCH2Ph]
5,88700 M⁻¹ s⁻¹,B3

# Target: Caspase-8 (UniProt Q14790)
# Assay: cell-based or functional assay
# Chain of Caspase-8 (Q14790 217-479 limits assumed): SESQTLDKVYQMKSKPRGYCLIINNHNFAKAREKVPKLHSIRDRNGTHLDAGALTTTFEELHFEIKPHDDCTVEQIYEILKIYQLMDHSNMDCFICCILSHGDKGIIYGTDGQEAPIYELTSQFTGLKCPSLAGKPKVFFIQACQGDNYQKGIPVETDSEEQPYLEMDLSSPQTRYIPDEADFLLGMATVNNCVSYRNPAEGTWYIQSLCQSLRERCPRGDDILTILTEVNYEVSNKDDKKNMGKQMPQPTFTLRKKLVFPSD
row,k2,Binder
1,60500 M⁻¹ s⁻¹,B1
2,39500 M⁻¹ s⁻¹,B2
3,71000 M⁻¹ s⁻¹,Cbz-IET[AAsp]-{CH═CH‑CONHCH2CH2Ph} [Cbz-Ile-Glu-Thr-AAsp-CH═CH-CONHCH2CH2Ph]
4,245000 M⁻¹ s⁻¹,Cbz-IET[AAsp]-{CH═CH‑CONHPh} [Cbz-Ile-Glu-Thr-AAsp-CH═CH-CONHPh]
5,61300 M⁻¹ s⁻¹,Cbz-IET[AAsp]-{CH═CH‑CONHCH2Ph} [Cbz-Ile-Glu-Thr-AAsp-CH═CH-CONHCH2Ph]
6,56500 M⁻¹ s⁻¹,B3

# Target: Caspase-9 (UniProt P55211)
# Assay: cell-based or functional assay
# Chain of Caspase-9 (P55211 whole entry): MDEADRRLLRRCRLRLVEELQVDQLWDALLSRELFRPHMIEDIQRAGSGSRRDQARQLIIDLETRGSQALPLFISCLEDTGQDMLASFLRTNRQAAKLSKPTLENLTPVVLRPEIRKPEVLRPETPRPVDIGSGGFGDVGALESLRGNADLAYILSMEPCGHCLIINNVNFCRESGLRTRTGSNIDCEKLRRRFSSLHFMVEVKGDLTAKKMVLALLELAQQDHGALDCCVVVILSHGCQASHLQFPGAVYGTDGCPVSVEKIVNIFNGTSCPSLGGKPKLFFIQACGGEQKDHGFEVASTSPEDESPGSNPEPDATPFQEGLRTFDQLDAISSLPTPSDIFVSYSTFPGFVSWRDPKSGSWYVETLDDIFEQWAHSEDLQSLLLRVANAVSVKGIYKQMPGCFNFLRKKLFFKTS
row,k2,Binder
1,760 M⁻¹ s⁻¹,B1
2,1930 M⁻¹ s⁻¹,B2
3,615 M⁻¹ s⁻¹,Cbz-IET[AAsp]-{CH═CH‑CONHCH2CH2Ph} [Cbz-Ile-Glu-Thr-AAsp-CH═CH-CONHCH2CH2Ph]
4,940 M⁻¹ s⁻¹,Cbz-IET[AAsp]-{CH═CH‑CONHPh} [Cbz-Ile-Glu-Thr-AAsp-CH═CH-CONHPh]
5,440 M⁻¹ s⁻¹,Cbz-IET[AAsp]-{CH═CH‑CONHCH2Ph} [Cbz-Ile-Glu-Thr-AAsp-CH═CH-CONHCH2Ph]

# Target: T3, Caspase-7
# Assay: cell-based or functional assay
row,k2,Binder
1,1020 M⁻¹ s⁻¹,B1
2,1140 M⁻¹ s⁻¹,B2
3,440 M⁻¹ s⁻¹,Cbz-IET[AAsp]-{CH═CH‑CONHCH2CH2Ph} [Cbz-Ile-Glu-Thr-AAsp-CH═CH-CONHCH2CH2Ph]
4,920 M⁻¹ s⁻¹,Cbz-IET[AAsp]-{CH═CH‑CONHPh} [Cbz-Ile-Glu-Thr-AAsp-CH═CH-CONHPh]
5,100 M⁻¹ s⁻¹,Cbz-IET[AAsp]-{CH═CH‑CONHCH2Ph} [Cbz-Ile-Glu-Thr-AAsp-CH═CH-CONHCH2Ph]
6,530 M⁻¹ s⁻¹,B3

# Target: T4, Caspase-10
# Assay: cell-based or functional assay
row,k2,Binder
1,8770 M⁻¹ s⁻¹,B1
2,7930 M⁻¹ s⁻¹,B2
3,8290 M⁻¹ s⁻¹,Cbz-IET[AAsp]-{CH═CH‑CONHCH2CH2Ph} [Cbz-Ile-Glu-Thr-AAsp-CH═CH-CONHCH2CH2Ph]
4,9210 M⁻¹ s⁻¹,Cbz-IET[AAsp]-{CH═CH‑CONHPh} [Cbz-Ile-Glu-Thr-AAsp-CH═CH-CONHPh]
5,503 M⁻¹ s⁻¹,Cbz-IET[AAsp]-{CH═CH‑CONHCH2Ph} [Cbz-Ile-Glu-Thr-AAsp-CH═CH-CONHCH2Ph]
6,6900 M⁻¹ s⁻¹,B3

# Target: T5, Caspase-2
# Assay: cell-based or functional assay
row,k2,Binder
1,38 M⁻¹ s⁻¹,B1
2,76 M⁻¹ s⁻¹,B2
3,30 M⁻¹ s⁻¹,Cbz-IET[AAsp]-{CH═CH‑CONHCH2CH2Ph} [Cbz-Ile-Glu-Thr-AAsp-CH═CH-CONHCH2CH2Ph]
4,365 M⁻¹ s⁻¹,Cbz-IET[AAsp]-{CH═CH‑CONHPh} [Cbz-Ile-Glu-Thr-AAsp-CH═CH-CONHPh]
5,15 M⁻¹ s⁻¹,Cbz-IET[AAsp]-{CH═CH‑CONHCH2Ph} [Cbz-Ile-Glu-Thr-AAsp-CH═CH-CONHCH2Ph]
6,300 M⁻¹ s⁻¹,B3

# From patent US20050256058A1
